According to patent US7078382 (dated 2006):
Residue numbers refer to the chain shown, from its start.

B1: LK-VRB-17s (ligand)
chain: APMAEGGGQNHHEVVKFEDVLRRSYCHPIETLVDIFQEYPDEIEYIFKPSCVPLMRCGGCCNSEMRECVPTEESNITMQIMRIKPHQGQHIGEMSFLQHNKCECRPKKD
B2: LK-VRB-18s (ligand)
chain: B1 chain with R22Q, Y25S
B3: LK-VRB-11s (ligand)
chain: B1 chain with R22Q
B4: LK-VRB-8s* (ligand)
chain: B1 chain with E18M, R22Q
B5: LK-VRB-20s (ligand)
chain: B1 chain with E18M, Y25S
B6: LK-VRB-13s (ligand)
chain: B1 chain with L21Y, R22Q, Y25S
B7: LK-VRB-12s (ligand)
chain: B1 chain with L21Y
B8: LK-VRB-9s (ligand)
chain: B1 chain with E18M, L21Y
B9: LK-VRB-14s (ligand)
chain: B1 chain with E18M
B10: LK-VRB-21s (ligand)
chain: B1 chain with Y25S, M65G, R66L
B11: LK-VRB-22s (ligand)
chain: B1 chain with Y25S, S63D, R66L
B12: LK-VRB-24s (ligand)
chain: B1 chain with Y25S, R66L
B13: LK-VRB-15s (ligand)
chain: B1 chain with E18M, R22Q, Y25S
B14: LK-VRB-10s (ligand)
chain: B1 chain with E18M, L21Y, R22Q, Y25S
B15: LK-VRB-1s* (ligand)
chain: B1 chain with Y25S, S63D, M65G, R66L
B16: LK-VRB-25s (ligand)
chain: B1 chain with Y25S, M65G
B17: LK-VRB-7s* (ligand)
chain: B1 chain with L21Y, R22Q
B18: LK-VRB-23s (ligand)
chain: B1 chain with Y25S, S63D, M65G
B19: LK-VRB-4s (ligand)
chain: B1 chain with F17I, L21F, R22E, Y25I, S63D, M65G, R66L
B20: LK-VRB-3s (ligand)
chain: B1 chain with F17I, L21F, R22K, Y25S, S63D, M65G, R66L
B21: LK-VRB-16s (ligand)
chain: B1 chain with E18M, L21Y, Y25S
B22: LK-VRB-26s (ligand)
chain: B1 chain with Y25S, S63D
B23: native VEGF (8-109) (ligand)
chain: GQNHHEVVKFMDVYQRSYCHPIETLVDIFQEYPDEIEYIFKPSCVPLMRCGGCCNDEGLECVPTEESNITMQIMRIKPHQGQHIGEMSFLQHNKCECRPKKD
B24: LK-VRB-2f (ligand)
chain: APMAEGGGQNHHEVVKFMDVYQRSYCHPIETLVDIFQEYPDEIEYIFKPSCVPLMRCGGCCNSEMRECVPTEESNITMQIMRIKPHQGQHIGEMSFLQHNKCECRPKKDRARQENPCGPCSERRKHLFVQDPQTCKCSCKNTDSRCKARQLELNERTCRCDKPRR
notes: also called KDR-full
B25: LK-VRB-2s* (ligand)
chain: B1 chain with E18M, L21Y, R22Q

target: T1, KDR (1-3) (UniProt P35968 20-327, limits assumed); assay: competition ELISA, biotinylated native VEGF (8-109) as tracer, KDR (1-3) captured by mAb MAKD5
T1 construct: domain: KDR (1-3); Soluble KDR (1-3) at 1 ug/ml, captured on the plate by anti-KDR monoclonal antibody MAKD5; also called KDR (1-3) monomer
T1 sequence (P35968 20-327 limits assumed): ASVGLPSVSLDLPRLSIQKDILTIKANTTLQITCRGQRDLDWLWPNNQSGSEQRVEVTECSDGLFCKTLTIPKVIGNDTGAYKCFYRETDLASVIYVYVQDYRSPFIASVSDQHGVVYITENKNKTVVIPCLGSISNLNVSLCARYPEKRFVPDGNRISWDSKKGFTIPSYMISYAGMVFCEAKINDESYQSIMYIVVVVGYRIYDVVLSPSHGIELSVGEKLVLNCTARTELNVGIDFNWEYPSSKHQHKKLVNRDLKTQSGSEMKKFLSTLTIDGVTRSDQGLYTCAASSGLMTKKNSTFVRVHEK

| Binder | IC50 [nM] | Relative Binding Affinity |
| --- | --- | --- |
| B1 | 3 | 3 fold of native VEGF (8-109) |
| B2 | 130 | 130 fold of native VEGF (8-109) |
| B3 | 2 | 2 fold of native VEGF (8-109) |
| B4 | 0.5 | 0.5 fold of native VEGF (8-109) |
| B5 | 2 | 2 fold of native VEGF (8-109) |
| B6 | 14 | 14 fold of native VEGF (8-109) |
| B7 | 0.4 | 0.4 fold of native VEGF (8-109) |
| B8 | 0.5 | 0.5 fold of native VEGF (8-109) |
| B9 | 0.5 | 0.5 fold of native VEGF (8-109) |
| B10 | 3 | 3 fold of native VEGF (8-109) |
| B11 | 4 | 4 fold of native VEGF (8-109) |
| B12 | 10 | 10 fold of native VEGF (8-109) |
| B13 | 2 | 2 fold of native VEGF (8-109) |
| B14 | 0.5 | 0.5 fold of native VEGF (8-109) |
| B15 | 1 | 1 fold of native VEGF (8-109) |
| B16 | 4 | 4 fold of native VEGF (8-109) |
| B17 | 1 | 1 fold of native VEGF (8-109) |
| B18 | 11 | 11 fold of native VEGF (8-109) |
| B19 | 1 | 1 fold of native VEGF (8-109) |
| B20 | 1 | 1 fold of native VEGF (8-109) |
| B21 | 0.6 | 0.6 fold of native VEGF (8-109) |
| B22 | 23 | 23 fold of native VEGF (8-109) |

target: T2, Flt-IgG (human, UniProt P17948 27-758, limits assumed); assay: competition ELISA, biotinylated native VEGF as tracer, Flt-IgG captured by anti-human Fc
T2 construct: Only described as 'a chimeric Flt-human Fc molecule'; captured by rabbit F(ab')2 to human IgG Fc; also called chimeric Flt-human Fc molecule; not shown: human IgG Fc
T2 sequence (P17948 27-758 limits assumed): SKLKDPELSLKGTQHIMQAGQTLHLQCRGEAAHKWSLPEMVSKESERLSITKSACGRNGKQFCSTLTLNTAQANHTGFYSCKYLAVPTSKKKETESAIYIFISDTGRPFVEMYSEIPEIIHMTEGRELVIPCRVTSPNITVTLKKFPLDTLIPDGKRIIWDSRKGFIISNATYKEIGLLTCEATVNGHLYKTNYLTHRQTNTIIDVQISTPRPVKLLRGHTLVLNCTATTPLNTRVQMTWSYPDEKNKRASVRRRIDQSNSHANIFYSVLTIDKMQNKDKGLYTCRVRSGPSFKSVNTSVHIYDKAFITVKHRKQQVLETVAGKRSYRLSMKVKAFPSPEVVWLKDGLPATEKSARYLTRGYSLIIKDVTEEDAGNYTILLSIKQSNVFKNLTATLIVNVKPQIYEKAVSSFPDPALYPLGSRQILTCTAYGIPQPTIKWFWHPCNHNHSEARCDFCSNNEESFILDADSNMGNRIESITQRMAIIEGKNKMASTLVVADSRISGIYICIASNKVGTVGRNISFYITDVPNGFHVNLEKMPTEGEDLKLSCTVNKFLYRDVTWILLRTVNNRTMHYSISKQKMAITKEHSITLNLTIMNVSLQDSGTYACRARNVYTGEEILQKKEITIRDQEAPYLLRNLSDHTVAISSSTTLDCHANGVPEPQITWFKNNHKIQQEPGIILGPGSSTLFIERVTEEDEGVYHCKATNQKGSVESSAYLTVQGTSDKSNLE

| Binder | IC50 [nM] | Relative Binding Affinity |
| --- | --- | --- |
| B23 | 0.42 |  |
| B4 |  | > 21000 fold of native VEGF (8-109) |
| B8 |  | 300 fold of native VEGF (8-109) |
| B15 | 2700 | 6000 fold of native VEGF (8-109) |
| B17 |  | > 15000 fold of native VEGF (8-109) |
| B19 | 100 | 200 fold of native VEGF (8-109) |
| B20 | 170 | 400 fold of native VEGF (8-109) |
| B24 | 19 |  |

target: KDR receptor with a gD tag at the N-terminus, on CHO cells (UniProt P35968 20-1356); assay: cell-based or functional assay

| Binder | Phosphorylation-Inducing Activity (KIRA), concentration at midpoint [nM] | Phosphorylation-Inducing Activity (KIRA), ratio to native VEGF (8-109) |
| --- | --- | --- |
| B23 | 2 |  |
| B15 | 1 | 0.5 fold of native VEGF (8-109) |
| B19 | 1 | 0.5 fold of native VEGF (8-109) |
| B20 | 2 | 1 fold of native VEGF (8-109) |
| B25 | 2 |  |

target: KDR receptor on human umbilical vein endothelial cells (HUVEC) (human, UniProt P35968 20-1356); assay: cell-based or functional assay
Sequence (P35968 20-1356): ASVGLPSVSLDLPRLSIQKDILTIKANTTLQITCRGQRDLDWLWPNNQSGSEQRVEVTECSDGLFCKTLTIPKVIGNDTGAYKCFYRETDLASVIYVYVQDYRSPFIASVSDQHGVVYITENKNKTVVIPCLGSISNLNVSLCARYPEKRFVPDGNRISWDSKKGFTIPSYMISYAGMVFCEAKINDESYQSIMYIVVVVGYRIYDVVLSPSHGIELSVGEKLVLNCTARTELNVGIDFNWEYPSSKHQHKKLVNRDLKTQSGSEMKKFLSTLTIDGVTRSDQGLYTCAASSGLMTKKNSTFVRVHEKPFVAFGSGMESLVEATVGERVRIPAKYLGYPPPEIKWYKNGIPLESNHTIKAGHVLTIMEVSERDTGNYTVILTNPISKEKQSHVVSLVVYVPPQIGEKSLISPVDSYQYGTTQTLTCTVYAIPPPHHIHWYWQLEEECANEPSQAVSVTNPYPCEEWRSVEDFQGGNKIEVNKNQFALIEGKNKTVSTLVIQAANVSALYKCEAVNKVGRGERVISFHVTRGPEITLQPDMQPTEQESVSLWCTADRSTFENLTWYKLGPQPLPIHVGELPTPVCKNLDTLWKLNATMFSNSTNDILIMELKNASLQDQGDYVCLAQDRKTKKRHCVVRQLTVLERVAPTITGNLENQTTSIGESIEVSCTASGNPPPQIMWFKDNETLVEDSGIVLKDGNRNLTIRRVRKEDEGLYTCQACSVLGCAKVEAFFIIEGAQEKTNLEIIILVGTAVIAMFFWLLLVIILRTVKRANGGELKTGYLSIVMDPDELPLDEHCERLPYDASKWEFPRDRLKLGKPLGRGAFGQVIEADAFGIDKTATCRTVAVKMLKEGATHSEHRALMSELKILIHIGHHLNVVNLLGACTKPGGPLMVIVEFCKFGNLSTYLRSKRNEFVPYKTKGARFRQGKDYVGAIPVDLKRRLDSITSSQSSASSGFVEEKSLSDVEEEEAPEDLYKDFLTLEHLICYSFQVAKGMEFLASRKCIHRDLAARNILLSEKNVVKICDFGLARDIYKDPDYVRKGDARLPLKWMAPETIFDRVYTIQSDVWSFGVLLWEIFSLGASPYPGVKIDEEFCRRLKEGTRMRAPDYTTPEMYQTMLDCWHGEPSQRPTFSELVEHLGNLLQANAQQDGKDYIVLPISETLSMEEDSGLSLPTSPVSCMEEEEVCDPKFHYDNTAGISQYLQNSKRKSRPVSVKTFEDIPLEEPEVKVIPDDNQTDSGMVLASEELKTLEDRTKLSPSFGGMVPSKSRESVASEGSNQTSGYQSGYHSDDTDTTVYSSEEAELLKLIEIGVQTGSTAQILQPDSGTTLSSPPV

| Binder | Endothelial Cell Proliferation Activity (HUVEC, 3H-thymidine), concentration [nM] | Endothelial Cell Proliferation Activity (HUVEC, 3H-thymidine), ratio to native VEGF (8-109) |
| --- | --- | --- |
| B23 | 0.5 |  |
| B4 | 0.5 | 1 fold of native VEGF (8-109) |
| B15 | 0.1 | 0.2 fold of native VEGF (8-109) |
| B17 | 0.5 | 1 fold of native VEGF (8-109) |
| B25 | 0.05 |  |
| B24 | 0.05 |  |

target: FLT-1 receptor (RIA of Example 11) (UniProt P17948 27-758, limits assumed); assay: RIA essentially as in Muller et al. 1997
Sequence (P17948 27-758 limits assumed): as the sequence (P17948 27-758 limits assumed) above

| Binder | Relative Binding Affinity |
| --- | --- |
| B15 | 14000 fold of native VEGF 165 |

target: KDR receptor (RIA of Example 11) (UniProt P35968 20-764, limits assumed); assay: RIA essentially as in Muller et al. 1997
Sequence (P35968 20-764 limits assumed): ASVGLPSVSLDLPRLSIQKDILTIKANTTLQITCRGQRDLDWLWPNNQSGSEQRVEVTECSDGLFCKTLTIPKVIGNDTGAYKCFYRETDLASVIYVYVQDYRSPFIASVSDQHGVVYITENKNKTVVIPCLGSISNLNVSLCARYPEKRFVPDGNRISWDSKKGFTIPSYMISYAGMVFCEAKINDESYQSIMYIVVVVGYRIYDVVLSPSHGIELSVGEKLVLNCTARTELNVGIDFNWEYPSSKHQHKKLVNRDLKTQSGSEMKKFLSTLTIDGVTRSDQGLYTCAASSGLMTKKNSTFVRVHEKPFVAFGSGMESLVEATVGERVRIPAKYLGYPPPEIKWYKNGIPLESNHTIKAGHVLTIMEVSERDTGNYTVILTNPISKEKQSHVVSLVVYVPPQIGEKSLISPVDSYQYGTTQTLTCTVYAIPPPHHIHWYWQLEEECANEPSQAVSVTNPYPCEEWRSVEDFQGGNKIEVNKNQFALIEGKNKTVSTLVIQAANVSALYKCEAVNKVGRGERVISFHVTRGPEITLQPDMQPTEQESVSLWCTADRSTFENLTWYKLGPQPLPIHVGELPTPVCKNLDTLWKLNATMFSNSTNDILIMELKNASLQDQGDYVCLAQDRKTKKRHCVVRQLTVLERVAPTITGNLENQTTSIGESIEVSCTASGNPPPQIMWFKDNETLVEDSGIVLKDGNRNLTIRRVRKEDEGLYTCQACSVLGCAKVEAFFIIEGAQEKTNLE

| Binder | Relative Binding Affinity |
| --- | --- |
| B15 | 20 fold of native VEGF 165 |
